Reference: the supplement of paper PMC10724198
± gives the standard deviation of the averaged measurements.

Test system: Saccharomyces cerevisiae
Test: protein stability index of tFT-peptide fusion (C-terminal peptide) (PSI (0-1 scale)); higher = more stable (slower turnover)
Conditions: temperature: 30 C
Protocol: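 MPS profiling in S. cerevisiae of the yeast C-terminome library: the last 12 aa of each annotated ORF are fused to the C-terminus of a sfGFP-mCherry timer, after a GGGS linker. Cells are FACS-sorted into 8 mCherry/sfGFP bins and deep-sequenced. PSI runs from 0 (unstable) to 1 (stable); wild type and das1Δ backgrounds, two technical replicates each.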

[1] = genetic background: das1 deletion

| Sequence | protein stability index [1] | protein stability index (genetic background: wild type) |
| --- | --- | --- |
| LMVPDPWYREGN [FAB1 C-terminal 12 aa] | 0.726 ± 0.018 | 0.721 ± 0.031 |
| LNDLSNVRHSKT [HER1 C-terminal 12 aa] | 0.6893 ± 0.0035 | 0.675 ± 0.022 |
| LNNLSMERSIRL [GIP3 C-terminal 12 aa] | 0.715 ± 0.015 | 0.666 ± 0.014 |
| LNRKWYTRFFFP [MNN10 C-terminal 12 aa] | 0.732 ± 0.012 | 0.702 ± 0.035 |
| LPIWDPMGALAK [LAP3 C-terminal 12 aa] | 0.703 ± 0.0072 | 0.739 ± 0.06 |
| LPKPAGWQNHIG [KTR1 C-terminal 12 aa] | 0.7014 ± 0.0053 | 0.68 ± 0.009 |
| LPNTISSETFLK [SCEI C-terminal 12 aa] | 0.661 ± 0.0076 | 0.702 ± 0.018 |
| LPQSTLQENQLS [SKN7 C-terminal 12 aa] | 0.706 ± 0.024 | 0.622 ± 0.028 |
| LQVSQEFTTKTQ [NUP82 C-terminal 12 aa] | 0.676 ± 0.034 | 0.709 ± 0.048 |
| LRIVACNSKKSE [TOA2 C-terminal 12 aa] | 0.673 ± 0.027 | 0.649 ± 0.022 |
| LRSCDLKRKSKK [YLR302C C-terminal 12 aa] | 0.678 ± 0.037 | 0.68 ± 0.028 |
| LSDLHIKEAKID [OGG1 C-terminal 12 aa] | 0.7101 ± 0.0056 | 0.568 ± 0.021 |
| LSDLRAWTLKVA [YDR491C C-terminal 12 aa] | 0.7058 ± 0.0027 | 0.329 ± 0.0064 |
| LSDYLSHDFASC [YNL040W C-terminal 12 aa] | 0.688 ± 0.011 | 0.694 ± 0.04 |
| LSFFGILKYCFL [TSC3 C-terminal 12 aa] | 0.6491 ± 0.0031 | 0.618 ± 0.027 |
| LSIAAGVGFALV [GAS1 C-terminal 12 aa] | 0.657 ± 0.007 | 0.653 ± 0.0083 |
| LSKKTSGTHTTH [YBR182C-A C-terminal 12 aa] | 0.681 ± 0.015 | 0.6949 ± 0.005 |
| LSQRAWATKKPI [YJL028W C-terminal 12 aa] | 0.696 ± 0.012 | 0.732 ± 0.077 |
| LSRYTRVLLMFM [YBR178W C-terminal 12 aa] | 0.632 ± 0.02 | 0.455 ± 0.014 |
| LSSVKVRQLRNM [RBH2 C-terminal 12 aa] | 0.681 ± 0.021 | 0.205 ± 0.0043 |
| LSTWDARTPILD [GPI2 C-terminal 12 aa] | 0.705 ± 0.0016 | 0.703 ± 0.0087 |

| Sequence | protein stability index [1] | protein stability index (genetic background: wild type) |
| --- | --- | --- |
| LTALLETVNKYR [GCG1 C-terminal 12 aa] | 0.7 ± 0.016 | 0.682 ± 0.014 |
| LTTISLYLMLKL [YGL262W C-terminal 12 aa] | 0.382 ± 0.021 | 0.351 ± 0.0079 |
| LVAIDPRSEAYC [YMR324C C-terminal 12 aa] | 0.68838 ± 0.00058 | 0.671 ± 0.012 |
| LVKHTYKRSSSS [VBA1 C-terminal 12 aa] | 0.705 ± 0.029 | 0.656 ± 0.019 |
| LVSNSDTNIVWP [YMR247W-A C-terminal 12 aa] | 0.68696 ± 0.00059 | 0.712 ± 0.015 |
| LVSQRITGPGVF [ASI2 C-terminal 12 aa] | 0.687 ± 0.0099 | 0.681 ± 0.0099 |
| LWVTLLPEFTNF [YBR121C-A C-terminal 12 aa] | 0.768 ± 0.018 | 0.75 ± 0.029 |
| LYFLVKSFLSIV [HMX1 C-terminal 12 aa] | 0.668 ± 0.14 | 0.282 ± 0.12 |
| MEDEDMVDVIID [ESC2 C-terminal 12 aa] | 0.689 ± 0.02 | 0.7232 ± 0.0017 |
| MGVVAAVGVALL [ECM33 C-terminal 12 aa] | 0.678 ± 0.019 | 0.642 ± 0.0081 |
| MHSNFQNLFNLK [CLB5 C-terminal 12 aa] | 0.708 ± 0.026 | 0.707 ± 0.026 |
| MKSKKIDIKGQK [THP3 C-terminal 12 aa] | 0.705 ± 0.03 | 0.665 ± 0.018 |
| MSLRKYVSVCSM [YHL006W-A C-terminal 12 aa] | 0.5 ± 0.012 | 0.513 ± 0.0063 |
| MVTNDGFGSTVL [YLR379W-A C-terminal 12 aa] | 0.698 ± 0.013 | 0.734 ± 0.029 |
| NDDDEDDDDFFD [SDD2 C-terminal 12 aa] | 0.723 ± 0.015 | 0.6947 ± 0.0056 |
| NDLITYLKKACE [CYC1 C-terminal 12 aa] | 0.68 ± 0.01 | 0.683 ± 0.011 |
| NDSDGTILIPDI [ZDS2 C-terminal 12 aa] | 0.6982 ± 0.0057 | 0.713 ± 0.041 |
| NDSEPESEYQQE [CUB1 C-terminal 12 aa] | 0.6922 ± 0.0057 | 0.713 ± 0.0081 |
| NEERINSKIFKS [RCF2 C-terminal 12 aa] | 0.716 ± 0.043 | 0.69629 ± 0.00022 |
| NENDFNFINWEG [FLO8 C-terminal 12 aa] | 0.741 ± 0.037 | 0.7071 ± 0.0051 |
